Literature values, collected in patent US20160282364A1, “ASSAY FOR INSULIN-DEGRADING ENZYME (IDE) INHIBITORS” (PRESIDENT AND FELLOWS OF HARVARD COLLEGE, priority 2013, published 2016).

Tested on: IDE

B1: insulin-like peptide 3 (protein, UniProt P51460 21-55; P51460 106-131, looked up)
Insulin-like 3 B chain: LGPAPTPEMREKLCGHHFVRALVRVCGGPRWSTEA
Insulin-like 3 A chain: AAATNPARYCCLSGCTQQDLLTLCPY
modifications: Insulin-like 3
notes: IDE substrate in vitro
IDE substrate
  Km: 0.055 µM
  kcat: 0.0025 s⁻¹
Degradation kinetics compared to insulin
  Degradation: Fast
